Values quoted from earlier work, collected in paper PMC3556358.

Target: insulin receptor (Homo sapiens) (UniProt P06213)
Sequence of UniProt P06213 (P06213 763-1382): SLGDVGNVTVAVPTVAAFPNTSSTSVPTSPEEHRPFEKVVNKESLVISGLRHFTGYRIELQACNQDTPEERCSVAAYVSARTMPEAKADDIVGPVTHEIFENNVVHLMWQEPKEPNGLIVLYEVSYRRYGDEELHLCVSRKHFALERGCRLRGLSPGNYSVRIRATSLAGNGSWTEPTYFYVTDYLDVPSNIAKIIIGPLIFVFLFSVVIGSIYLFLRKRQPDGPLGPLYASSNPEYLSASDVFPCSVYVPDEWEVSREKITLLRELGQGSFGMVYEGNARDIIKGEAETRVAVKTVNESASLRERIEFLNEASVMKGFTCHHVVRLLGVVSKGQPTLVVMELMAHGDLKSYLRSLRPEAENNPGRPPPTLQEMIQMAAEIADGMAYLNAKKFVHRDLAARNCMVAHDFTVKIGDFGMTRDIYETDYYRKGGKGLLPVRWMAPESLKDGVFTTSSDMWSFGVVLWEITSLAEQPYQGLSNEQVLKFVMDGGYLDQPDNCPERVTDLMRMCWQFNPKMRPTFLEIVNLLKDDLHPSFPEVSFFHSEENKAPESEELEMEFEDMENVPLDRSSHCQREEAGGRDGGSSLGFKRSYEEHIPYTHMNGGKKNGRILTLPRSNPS

Sequence of insulin (P01308 90-110): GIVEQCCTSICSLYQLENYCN

Kd: 0.3 nM
Substance: insulin (from UniProt P01308)
